In experiment [1] the target is bt-SR (bt-SRβ + SRα) (canine). Put plainly: IAsys optical biosensor.
In another experiment the target is Sec61 complex. Put plainly: radioligand binding.
For experiment [2], the target named is SRP receptor purified from canine pancreas (canine) (UniProt P06625). Description: radioligand binding.
In experiment [3] the target is bt-SR (bt-SRβ + SRα) (canine). Description: IAsys optical biosensor. The source holds these as a separate data set.
The target of experiment [4] is bt-SR (bt-SRβ + SRα) (canine). Put plainly: IAsys optical biosensor. This is another data set of the same source.

The Kd is the constant that tells how readily two partners part at equilibrium. By stoichiometry N is commonly meant the number of molecules, sites or subunits per partner or assembly. Usually koff stands for the first-order rate constant of dissociation. What is called kon is the second-order rate constant of association.

Where two headings read alike, the source gives them in different places.

Take 80S ribosomes (complex): the Kd in experiment [1] was 1.9 nM; with Sec61 complex it was 5.4 nM; in experiment [2], 0.87 nM; in experiment [3], 0.9 nM. In addition, in experiment [2], the stoichiometry N worked out at 1.

Regarding “signal recognition particle (from UniProt P61010 1-504) (complex)”, the figures for the koff in experiment [4] and in experiment [3] were 0.0065 s⁻¹ and 0.0069 s⁻¹, respectively. Also, the association rate constant (kon) in experiment [3] turned out to be 48000 M⁻¹ s⁻¹.

For the origin of these results see PMC2173783.
